From paper PMC2901922

Assays:
Assay in all cases: EMSA
λN22 = target: T1, λN22 (bacteriophage λ, UniProt P03045 1-22)
T1 chain: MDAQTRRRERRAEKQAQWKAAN

Acr-Link2-λN22 = target: T2, Acr-Link2-λN22 (bacteriophage λ, UniProt P03045 1-22)
T2 chain: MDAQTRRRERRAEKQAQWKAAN

λN11 = target: T3, λN11 (bacteriophage λ, UniProt P03045 1-11)
T3 chain: MDAQTRRRERR

Measured: binding result

GCCCUGAAAAAGGGC (structured_RNA) [λ boxB 15mer]
binds: all assays above
